Measurements published in publication PMC12416549 (2024).
Where two headings read alike, the source gives them in different places.

T1: TNFR1 (Homo sapiens, UniProt P19438)
T1 chain: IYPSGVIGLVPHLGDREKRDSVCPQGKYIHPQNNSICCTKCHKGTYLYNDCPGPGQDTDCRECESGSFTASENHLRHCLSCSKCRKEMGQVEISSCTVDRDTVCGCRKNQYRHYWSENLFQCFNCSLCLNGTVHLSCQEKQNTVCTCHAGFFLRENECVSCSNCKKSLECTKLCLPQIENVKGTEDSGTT


Legend:
[1] = biological target: T1, TNFR1; test: yeast display SC50
[2] = biological target: T1, TNFR1; test: yeast display SC50

Binder | apparent Kd (screen) [1] | apparent Kd (screen) [2]
D65H (designed binder) MTLQELLREEALRRAEAEAFRYALELLAEKFPEQKEYLLDLAEEIESQIRSLSGVDVEDVRKFLHKEWAWVKELLAEHPAELAEVEAARAARLAELRAEVEAKVAA | 0.718 nM | 
F63L (designed binder) MTLQELLREEALRRAEAEAFRYALELLAEKFPEQKEYLLDLAEEIESQIRSLSGVDVEDVRKLLDKEWAWVKELLAEHPAELAEVEAARAARLAELRAEVEAKVAA | 2.48 nM | 
I45E (designed binder) MTLQELLREEALRRAEAEAFRYALELLAEKFPEQKEYLLDLAEEEESQIRSLSGVDVEDVRKFLDKEWAWVKELLAEHPAELAEVEAARAARLAELRAEVEAKVAA | 1.05 nM | 
E9D (designed binder) MTLQELLRDEALRRAEAEAFRYALELLAEKFPEQKEYLLDLAEEIESQIRSLSGVDVEDVRKFLDKEWAWVKELLAEHPAELAEVEAARAARLAELRAEVEAKVAA | 0.79 nM | 
R61I (designed binder) MTLQELLREEALRRAEAEAFRYALELLAEKFPEQKEYLLDLAEEIESQIRSLSGVDVEDVIKFLDKEWAWVKELLAEHPAELAEVEAARAARLAELRAEVEAKVAA | 0.539 nM | 
E95F (designed binder) MTLQELLREEALRRAEAEAFRYALELLAEKFPEQKEYLLDLAEEIESQIRSLSGVDVEDVRKFLDKEWAWVKELLAEHPAELAEVEAARAARLAFLRAEVEAKVAA | 0.446 nM | 
V104G (designed binder) MTLQELLREEALRRAEAEAFRYALELLAEKFPEQKEYLLDLAEEIESQIRSLSGVDVEDVRKFLDKEWAWVKELLAEHPAELAEVEAARAARLAELRAEVEAKGAA | 0.653 nM | 
E73C (designed binder) MTLQELLREEALRRAEAEAFRYALELLAEKFPEQKEYLLDLAEEIESQIRSLSGVDVEDVRKFLDKEWAWVKCLLAEHPAELAEVEAARAARLAELRAEVEAKVAA | 0.79 nM | 
E84I (designed binder) MTLQELLREEALRRAEAEAFRYALELLAEKFPEQKEYLLDLAEEIESQIRSLSGVDVEDVRKFLDKEWAWVKELLAEHPAELAIVEAARAARLAELRAEVEAKVAA | 0.869 nM | 
D40H (designed binder) MTLQELLREEALRRAEAEAFRYALELLAEKFPEQKEYLLHLAEEIESQIRSLSGVDVEDVRKFLDKEWAWVKELLAEHPAELAEVEAARAARLAELRAEVEAKVAA | 7.78 nM | 
R13F (designed binder) MTLQELLREEALFRAEAEAFRYALELLAEKFPEQKEYLLDLAEEIESQIRSLSGVDVEDVRKFLDKEWAWVKELLAEHPAELAEVEAARAARLAELRAEVEAKVAA | 0.277 nM | 
A10Y (designed binder) SMEEEVEKAYKEYEKKKKEAIEKHLEKLKAKDKEAAERFLKELEEAAKEYAKDEAKTMSEEEAKRRAKKYKEKVLLSELSEEEQKEIKEAEEKLVRTILKYVEEAAK |  | 13.8 nM
E60V (designed binder) SMEEEVEKAAKEYEKKKKEAIEKHLEKLKAKDKEAAERFLKELEEAAKEYAKDEAKTMSVEEAKRRAKKYKEKVLLSELSEEEQKEIKEAEEKLVRTILKYVEEAAK |  | 0.446 nM
A63E (designed binder) SMEEEVEKAAKEYEKKKKEAIEKHLEKLKAKDKEAAERFLKELEEAAKEYAKDEAKTMSEEEEKRRAKKYKEKVLLSELSEEEQKEIKEAEEKLVRTILKYVEEAAK |  | 7.07 nM
